Target: T1, prostate specific membrane antigen (human, UniProt Q04609 1-750)
T1 construct: whole, on cells; also called PSMA
Assay: Western blot, prostatic (seminal) fluid
Experimental: To confirm that antibodies E99, J415, J533, and J591 precipitate an identical band to the 7Ell antibody (i.e., PSMA), Western Blot analyses were performed. Seminal plasma (400 μg/lane) or LNCaP lysate were loaded into lanes of 12% SDS-PAGE gels. After electrophoresis, the gels are transferred to nitrocellulose membranes. The membranes were blocked with 5% dry milk/Tris-buffered saline-tween 20 (“TBST”) for 60 min at room temperature. After washing, the membranes were incubated with primary mAb for 60 min at room temperature. After repeat washing, the membranes were incubated with sheep anti-mouse-Ig-peroxidase 1/5000 in 5% dry milk/TEST for 60 min at room temperature. After repeat washing, the membranes were developed using a chemiluminescent tag designated “ECL” (Amersham Life Sciences, International, Arlington Heights, Ill.) according to the manufacturer's directions.

T1 sequence (Q04609 whole entry): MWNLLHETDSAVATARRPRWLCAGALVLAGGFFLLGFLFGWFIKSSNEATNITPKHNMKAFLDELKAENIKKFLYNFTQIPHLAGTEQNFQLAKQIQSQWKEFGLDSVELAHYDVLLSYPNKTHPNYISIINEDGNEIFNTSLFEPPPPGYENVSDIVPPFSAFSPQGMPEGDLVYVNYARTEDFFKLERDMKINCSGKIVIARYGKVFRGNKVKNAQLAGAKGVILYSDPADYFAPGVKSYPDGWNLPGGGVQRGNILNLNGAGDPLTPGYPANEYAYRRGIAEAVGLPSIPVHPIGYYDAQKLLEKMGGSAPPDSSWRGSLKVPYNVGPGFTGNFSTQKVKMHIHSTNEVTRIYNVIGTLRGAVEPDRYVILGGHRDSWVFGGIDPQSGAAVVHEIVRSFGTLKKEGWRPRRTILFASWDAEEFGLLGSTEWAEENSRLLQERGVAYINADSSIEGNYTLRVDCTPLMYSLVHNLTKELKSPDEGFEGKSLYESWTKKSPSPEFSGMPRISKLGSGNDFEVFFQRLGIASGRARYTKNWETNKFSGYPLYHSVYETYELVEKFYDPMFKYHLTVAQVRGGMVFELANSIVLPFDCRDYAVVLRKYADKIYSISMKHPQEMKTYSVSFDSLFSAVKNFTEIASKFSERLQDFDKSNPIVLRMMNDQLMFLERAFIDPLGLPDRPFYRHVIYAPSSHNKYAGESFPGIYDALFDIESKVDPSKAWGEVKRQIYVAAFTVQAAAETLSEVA

B1: monoclonal antibody J591 (antibody, V domains shown)
VH: EVQLQQSGPELVKPGTSVRISCKTSGYTFTEYTIHWVKQSHGKSLEWIGNINPNNGGTTYNQKFEDKATLTVDKSSSTAYMELRSLTSEDSAVYYCAAGWNFDYWGQGTTLTVSS
VL: DIVMTQSHKFMSTSVGDRVSIICKASQDVGTAVDWYQQKPGQSPKLLIYWASTRHTGVPDRFTGSGSGTDFTLTITNVQSEDLADYFCQQYNSYPLTFGAGTMLDLK
notes: Gold-labeled in the electron microscopy; also called mAb J591; hybridoma ATCC HB-12126
B1: binds.
